Measured values taken from patent publication US9657081B2, “Inhibiting peptides derived from triggering receptor expressed on myeloid cells-1 (TREM-1) TREM-like transcript 1 (TLT-1) for treatment of cardiovascular diseases” (INSERM (Institut National de la Sante et de la Recherche …, priority 2013, dated 2017).

Assays:
TREM-1 [1] = assay: Rat model of sepsis-induced cardiac dysfunction, intrinsic cardiac function by Millar catheter; format: in vivo; design: dpdtmax/Ved / PRSW: unit not given beside the values; FEVG / ESPVR: unit not given here
Description: TREM-1- and TLT-1-derived peptides administration during rat model of sepsis-induced cardiac dysfunction is associated with an increase of intrinsic cardiac function measured by Millar catheter (FEVG, ESPVR, dpdtmax/Ved, PRSW).
Rats were anaesthetized with isoflurane and a 2 F high-fidelity micro-manometer catheter (SPR-407, Millar Institute, Houston, Tex., USA) was inserted into the LV via the right carotid artery. The Millar catheter was connected to a Harvard Data Acquisition System interfaced with a PC with the AcqKnowledge III software (ACQ 3.2).

TREM-1 [2] = molecular target: T1, TREM-1 (Sus scrofa, UniProt Q6TYI6); assay: Mini-pig model of sepsis (peritonitis): sepsis-induced hypotension and cardiac dysfunction; format: in vivo, mini-pig (Sus scrofa domestica)
T1 construct: endogenous in cells; host or cells: living mini-pigs (in vivo)
T1 sequence (Q6TYI6 21-238): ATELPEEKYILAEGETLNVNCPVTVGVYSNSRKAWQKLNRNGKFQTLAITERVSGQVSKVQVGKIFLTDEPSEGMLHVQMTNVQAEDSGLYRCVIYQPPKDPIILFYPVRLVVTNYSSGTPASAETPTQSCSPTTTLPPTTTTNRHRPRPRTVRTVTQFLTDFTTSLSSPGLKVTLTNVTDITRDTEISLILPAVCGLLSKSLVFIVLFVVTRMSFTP
Experimental: Adult male mini-pigs (Sus scrofa domestica, Vietnamese pot-belied mini-pigs, 30-40 kg) were purchased from Elevage Ferry (Vosges, France). Before surgery, animals were fasted overnight with free access to water. Preanesthesia was performed through intramuscular administration of ketamine (10 mg/kg) and midazolam (0.1 mg/kg). Anesthesia was induced and maintained with intravenous pentobarbital (initial bolus: 10 mg/kg, and continuous administration 6-8 mg/kg/h), intermittent sufentanyl (10 μg), and pancuronium (4 mg) if necessary. Animals were mechanically ventilated (tidal volume 8 ml/kg, PEEP 5 cm H2O, FiO2 0.21, respiratory rate 14-16 breaths/min adjusted to maintain normocapnia). Left jugular vein was exposed and a triple-lumen line was inserted. Right jugular vein was also catheterized and a Swan-Ganz catheter was positioned allowing the continuous recording of cardiac output, SvO2, and right atria and pulmonary arterial pressures. A right carotid arterial catheter was inserted for continuous measurement of arterial pressure. A catheter in the bladder allowed urine collection.
After instrumentation, a midline laparotomy was performed to collect feces from the left colon: 1.5 g/kg were suspended in 200 mL of 0.9% NaCl and incubated at 38° C. for 2 hours. After surgery, a tube was left in place for the peritonitis induction and ascites drainage.
After surgery, animals were allowed to recover for 2 hours before baseline measurements (defined as ‘H0’). Normal saline was continuously administered (10 mL/kg/h) throughout the study. Body temperature was kept constant (±1° C.) using heating pads or cooling.
After baseline data collection (H0), peritonitis was induced by administration of autologous feces through the abdominal tube which was subsequently maintained clamped. After 2 hours (H2), animals were randomized to receive LR12 (LR12 group, n=6) or the vehicle (normal saline) alone (Control group, n=5). A bolus of 5 mg/kg (in 60 mL) was intravenously delivered over 30 minutes, then a 1 mg/kg/h (15 mL/h) infusion was started and lasted throughout the study period.
Animal care was then provided by an experienced intensive care physician with strict adhesion to the following guidelines throughout the study period:
i) Hemodynamic targets: the main objective was to maintain mean arterial pressure (MAP) above 85 mmHg. To achieve this goal and in addition to the maintenance 0.9% NaCl administration (7 mL/kg/h), hydroxyethyl starch (up to 20 mL/kg for the entire study period) (HES 130/0.4, Voluven®, Fresenius) was allowed provided that central venous pressure (CVP) and pulmonary artery occlusion pressure (PAOP) was <18 mmHg. When hydroxyethyl starch maximal volume was reached, a continuous infusion of norepinephrine was started up to 10 μg/kg/min.
Hemodynamic parameters were continuously monitored including MAP, mean pulmonary artery pressure (MPAP), right atrial pressure (RAP), cardiac output (CO), cardiac index (CI), and SvO2. Systemic oxygen delivery (DO2) and systemic oxygen uptake (VO2) were calculated by the Swan-Ganz monitor. Cardiac Power Index (W/m^2) was calculated as MAP×CI/451 (24).

“LQEEDAGEYGCM (listed as Homo sapiens) [TLT1-LR12]” showed an ESPVR (TREM-1 [1]) of 2.7 ± 0.1, an FEVG (TREM-1 [1]) of 77.2 ± 9.2 and a PRSW (TREM-1 [1]) of 143 ± 7. For the same sequence, the dpdtmax/Ved (TREM-1 [1]) was 158 ± 18, the “animals in which norepinephrine was started by H12 to maintain MAP >85 mmHg” value (TREM-1 [2]; mini-pig peritonitis) was 1/6 and the volume rescucitation (TREM-1 [2]; mini-pig peritonitis, 5 mg/kg bolus then 1 mg/kg/h i.v.) was 6500 ± 800 mL. For the same sequence, the progressive lactic acidosis (TREM-1 [2]; p=0.0005) was “largely attenuated”, the “cardiac failure (cardiac index, cardiac power index, SvO2, DO2)” value (TREM-1 [2]; versus controls) was “significant beneficial effects in attenuating cardiac failure” and the “norepinephrine infusion rate needed to maintain blood pressure” value (TREM-1 [2]; versus controls) was “significantly lower”.
